In the nanobody polyreactivity screen of Harvey et al. (2022):

Test: yeast display, Sf9 membrane polyspecificity reagent, FACS + sequencing; frameworks hold sequencing errors
In short: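 After 36–48 hours of galactose induction, yeast (Saccharomyces cerevisiae BJ5465) displaying a synthetic nanobody library were stained at 4 °C for 1 hour with 10% biotinylated, detergent-solubilized Sf9 membrane reagent. Streptavidin microbeads enriched the stained cells before FACS sorting into low and high (top ~1%) gates on anti-HA and streptavidin fluorescence. Each clone's polyreactivity label reflects its gate of origin.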

Sequence | polyreactivity (PSR sort gate)
QVQLVESGGGLVQAGGSLRLSCAASGSTCFDYAMGWYRQAPGKERELVAAISRSGDTNYADSVKGRFTISRDNAKNTVYLQMNILKPEDTAVYYCAKDWAYRRHWVGFYYWGQGTQVTVSS | low polyreactivity
QVQLVESGGGLVQAGGSLRLSCAASGSIFYYYAMGWYRQAPGKERELVAAITYSGGSTHYADSVKGRFTISRDNAKNTVYLQMNSLKPDDTAVFYCAVYYRSHSGSRIYYWGQGTQVTVSS | high polyreactivity
QVHLVESGGGLVQAGGSLRLSCAASGSTKGNNAMGWYRQATGKERELVAAISTRGGSTYYADSVKGRFTISRDNAKNTVYLQMNSLKPEDTAVYYCAADFGQYHGAVRKMDYWGQGTQVTVSS | low polyreactivity
QVQLVESGGGLVQAGGSLRLSCAASGITFTDYAMGWYRQAPGKERELVAAISGIGSTTYYADSVKGRFTISRDNAKNTVYLQMNSLKPEDTAVYYCNALLAYTYWYDYWGQGTQLTVSS | high polyreactivity
QVQLVESGGGLVQAGGSLRLICAASGSIFGRYAMGWYRQAPGKETELVAAINDDSGRTYYADSVKGRFTISRDNAKNTVYLQMNSLKPEDTAVYYCAADGYVLWYSFDYWGQGTLVTVSS | high polyreactivity
QVKLVESGGGLVQAVGILSLSCAASGSILGLYAMGWYRQAPGKERELVASITSSGSTYYADSVKGRFTISRDNAKNTVYLQMIILKPEDTAVYYCAAVVSYYYYIRYDYWGQGTQVTVSS | low polyreactivity
QVQLVESGGGLVQAGGSLRLSCAAAGSTFHANAMGWYRPAPGKERELVAAISRSGGSTNYADSVKGRFTISRDIAKNTVYLQMNSLKPEDTAVYYCAVDYRYYQVYYWGQGTQVTVSS | high polyreactivity
QVQLVESGGGLVKAGGSLRLSCAASGSIYTNAMGWYRQAPGKERELVAAISWSGGRTYYADSVKGRFTISRDNAKNTVYLQINSLKPEDTAVYYCNPRGTRIASGHYYWGQGTLVTVSS | high polyreactivity
QVQLVESVGGLVQAGGSLRLSCAASGRIFYLYAMGWYRQEPGKERELVAVISYGGDRTSYADSVKGRFTISRDNAKNTVYLQMNSLKPEDTAVYYCAARPFYRGYYYWGQGTQVTVSS | high polyreactivity
QVQLVESGGGLVQAGGSLRLSCAASGRTFTRYAMGLYRPAPGKERELVAAISYIGGRTNYADSVKGRFTISRDNAKKTVYLQMHSLKPEDTAVYYCAASRPWVYYDGLVYWGQGTQVTVTS | high polyreactivity
QVQLVESGGGLVQAGGSLRLSCDASGSIFYGYTMGWYRQDPGKERELVAAIRKSGGSTNYADSVKGRFTISRDNAKNTVYLQMNSLKPEDTAVYYCAASYYRGRGYYWGQGTQVTVSS | high polyreactivity
QVQLVESGGGLVQAGGSLRLSCAASGRIFRGYAMGWYRQAPGKERELVAAISQSGSSTYYADSVKGRFTISRDNAKNTVYLQMNSLKPEDTAVYFCAVKYLKHFGYWGQGTQVTVSS | high polyreactivity
QVQLVESGGGLVQAGGSLRLSCAASGSIFSWYAMGWYRQAPGKERELVAAISNAGRTYYADSVKGRFTISRDNAKNTVYLQMNSLKPEDTAVYYCAAAGPRQGNYGGYEYWGQGTQVTVSS | high polyreactivity
QVQLVESGGGLVQAGGSLRLSCAASGRTFTINAMGWYRQAPGKERELVAAITSGGSTNYADSVKGRFTISRDNAKNTVYLQMNSLKPEDTAVYYCNAGYYSRRYYFSGRLDYWGQGTQVTVSS | low polyreactivity
QVQLVESGGGLVQAGGSLRLSCAASGRTFNWNAMGWYRQAPGKESEFVADISGRGGSTYYADSVKGRFTISRDNAKNTVYLQMNSLKPEETAVYYCAARPRFLRASVEFDYWGQGTQVTVSS | high polyreactivity
QVQLVESGGGLVQAGGSLRLSCAASGSTFAIYAMGWYRQAPGKERELVASISGGSTNYADSVKGRFTISRDNAKNTVYLQMNSLKPEDTAVYYCAARGALHHWYRYDYWGQVTQVTVSS | low polyreactivity
QVQLVESGGGLVQAGGSLRLSCAASGLTFYDYAKGWYRQAPGKELELVADIDFNGGSTSYADSVKGRFTISRDNAKNTVYLQMNSLKPEDTAVYYCAVDFIYWFHSRSSYIYDYWGQGSQVTVSS | low polyreactivity
QVQLVESGGGLVQAGGSLRLSCAASGSIFVYNAMGWYRQAPGKERELVAAISQRGGSTYYADSVKGRFTISRDNAKNTVYLQMNSLKPEDTADYYCAAGPGDSGDDYWGQGTQVTVSS | low polyreactivity
QVQLVESGGGLVQAGGSLRLSCAASGSTFVAYAMGWYRHAPGKERELVADISTSDGSTRYADSVKGRFTISSDNAKNTVYLQMISLKPEDTAVYYCGAGSEYYSYGGVRFSFYYWGQGTQVTVSS | low polyreactivity
QVQLVESGGGLVQAGGSLRLSCAASGSILYYALGWYRQAPGKESELVATITRGGSTYYADSVKGRFTISRDNAKNTVYLQMNSLKPEDTAVYYCAARRAVRVGYYWHDISSYDYWGQGTQVTVSS | low polyreactivity
QVQLVESGGGLVQAGGSLRLSCAASGFIFDDNAMGWYRQAPGKERELVAAITSGGGSTYYADSVKGRFTISRDNAKNTVYLQMNSLIPEDTAVYYCNAVPSQHDEFDYWGQGTHVTVSS | low polyreactivity
QVQLVESGGGKVQAGGSLRLSCAASGRIFSVYTMGWYSQAPGKERELVAAISSGASTNYADSVKGRFTISRDNAKNTVYLQMNSLKPEDTAVEYCNAQWYLRLGASKTWVDVDYWGQGTQVTVSS | low polyreactivity

Sequence | polyreactivity (PSR sort gate)
QVQLVESGGGLVQAGGSLRLSCAASGSILSINGMGWYRQAPGKERELVATIDGSDGSTFYADSVKGRFTISRDNAKNTVYLQMNSLKPEDTAVYYCAAENFWQTKEYDYWGQGTQVTVSS | low polyreactivity
QVQLVESGGGLVQAGGSLRLSCAASGFIFYDYDMGWYRQAPGKERELVAAISDGGSTNYADSVKGRFTISRDNAKNTVYLQMNSLKPEDTAVYYCAKDGFVYYDYFQYIEYDYWGQGTQVTVSS | low polyreactivity
QVQLVESGGGLVQAGGSLRLSCAASGFIFTDNAMGWYRQAPGKERELVAAISKNGGSTYYADSVKGRFTISRDNAKNTVYLQMNSLKPDDTAVYYCNAVRRDSGTYRSPDTTRYDYWGQVTQVTVSS | high polyreactivity
QVQLVESGGGLVQAGGSLRLSCAASGRIFQKNAMGWYRQAPGKERELVAAISSGGSTNYADSVKGRFTISRDNAKNTVYLQMNSLKPEDTAVYYCAVESVYEYGGYVDSAYDYWGQGTQVTVSS | low polyreactivity
QVQLVESGGGLVQAGGSLRLSCAASGLTFVAYAMGWYRQAPGKERELVAAITRRGGSTYYADSVTGRFTISRDNAKNTVYLQMNSLKPEDTAVYYCAAEGSYSRNPGFDYWGQGTQVTVSS | high polyreactivity
QVQLVESGGGLVQAGGSLRLSCAASGSTFFRYAMGWYRQAPGKEREFVAAITSSGGNTYYADSVKGRFTISRDNAKNTVYLQMNSLKPEDTAVYYCAAVWYSPYVKYNYWGQGTQVTVSS | low polyreactivity
QVQLVESGGGLVQAGGSLRLSCAPSGLTYLYAMGWYRQAPGKETELVAAISSSGGSTYYADSVKGRFTISRDNAKNTVSLQMNSLNPEDTGVYYCAAYTRGWLGYDYWGQGTQVTVSS | high polyreactivity
QVQLVESGGGLVQPGGSLRLSCAASGRTFRTNAMGWSRQEPGKERELVAAISTGGGITNYADSVKGRFTISRDNAKNTVYLQMNCLKPEDTAVYYCAARLAYNAIGYYYWGQGTQVTVSS | low polyreactivity
QVQLVESVGGLVQAGGSLRISCAASGFIFKSYSMGWYRQAPGKERELVAAISWIGGRTYYADSVKGRFTISRDNAKYTVYLQMNSLKPEDTAVYYCAKVVKYQSGGGLEYWGQGTQVTVSS | high polyreactivity
QVQLVESGGGLVQAGGSLRLSCAASGSTFVWYDMGWYRQAPGKERELVATITSGGITTYADSVKGRFTISRDNAKNTVYLQMNSPKPEDTAVYYCNADLYYWLRYYDRNEYRGQGTQVTVSS | low polyreactivity
QVQLVESGGGLVQAGGSLRLSCAASGRTFFYYAMGWYRQAPGKERELFATITKRGGSTYYADSVKGRFTISRDNAKNTVYLQMNSLKPEDTAVYYCAATYYRQGRRYLGYDYWGQGTQVTVSS | high polyreactivity
QVQLVESGGGLVQAGGSLRLSCAASGSTFKNNAMGWYRQEPGKEREFVASISKRGGSTYYADSVKGRFTISRDNAKNTVYLQMNSLKPEDTAVDYCAKTYWSYGWSHGDYGEFDYWGQGTQVTVSS | high polyreactivity
QVQLVESGGGLVQAGGSLRLSCAASGRIFLYYAMGWYRQAPGKERELVAAITSDGSTNYADSVKGRFTISRDNAKNTVYLQMNSLKPEDTAVYYCARRIQTYHYHYDYWGQGTQVTVSS | low polyreactivity
QVQLVESGGGLVQAGGSLRLSCAASGLTFPHYAMGWYRQAPGKEREFVAVISWSGGSTSYADSVKGRFTISRDNAKNTVYLQMNSLKPEDTAVYYCAAVYRTREWSYYYWGQGTQVTVSS | high polyreactivity
QVQLVESGGGLVQAGGSLRLSCAASGYIFGYYVMGWYRQARGKERELVAAISDSDITYYADSVKGRFTISRDNAKNTVSLQMNSLKPEDTAVYYCNADFGYWWDGRRYDYWGQGTQVTVSS | low polyreactivity
QVQLVESGGGLVQAGGSLRLSCAASGRIIGRYAMGWYRQAPGKERELVAGITIRGGSTYYADSVKGRFTISRDNAKNTVYLQMNSLKPEDTAVYYCAARHGSGFRYYPGHAGGYWGQGTQVTVSS | low polyreactivity
QGQLVESGGGLVQAGGSLRLSCAASGLIFYPNGMGWYREAPGKERELVAAITYSDGSTYYADSVKGRFTISRDNAKNTVYLQMNSLKAEDTAVYYCNRVTRWTYNYWGQGTQVTVSS | high polyreactivity
QVQLVESGGGLVQAGGSLRLSSAASGITFRFYSMGWYRQAPGKEREFVAAISTRGGRTYYADSVKGRFTISRDNAKNTVYLQMKSLKPEDTAVYYFAADFYYRTVATVTSVARYDYWGQGTQVTVSS | high polyreactivity
QVQLVESGGGLVQAGGSLRLSCAASGRIFYGYAMGWYRQAPGKERELVASITVSRTSTYYADSVKGRFTISRDNAKNTVYLQMNSLKPEDTAVYYCAVGDGFEYDWGQGTQVTVSS | low polyreactivity
QVQLVESGGGLVQAGGSLRLSCAASGSIFRNYAMGWSRPATGKERELVASIRYSGGRTNYADSVKGRFTISRDNAKNTVYLQMNSLKPEDTAVYYCAADPGYGWQRAYYYWGQGTQVTVSS | high polyreactivity
QVQLVESGGGLVQAGGSLRLSCAASGRTFSHYAMGWYRQAPGKERELVAAINTRTGTTYYADSVKGRFTISRDNAKNTVYLQMNSLKPEDTAVYYCNAVPYYSYQGWILVGDYDYWGQGTQVTVSS | low polyreactivity
